B1: library; a variant is named by its letters at N, in order (parent)
chain: GCUGUCACCGGUGCUUGGUACGUUAUAUUCAGCCGGUCUGAUGAGUCUNNNNNNAGACGAAACAGC

In series [1] the parent is B1. Briefly: normalized RNA/DNA level without ligand (relative to sTRSVctl = 100) (log10 (% of sTRSVctl)); HEK293T overexpressing SLC46A1; higher = less ribozyme self-cleavage, higher mRNA level. The conditions noted are these: without (6R,S)-folinic acid; ligand present: no. The essentials:
(§1)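 For each 6-well well, 4 µg of library plasmid encoding mCherry-linked ribozyme switches, or eGFP-linked ones in some ligand experiments, was transfected into HEK293T. Any ligand was added 1 h before transfection, and RNA was extracted with EDTA 72 h after it, then reverse-transcribed, amplified, barcoded and sequenced. RNA level was obtained by dividing RNA reads by DNA reads, normalizing to a spiked-in non-cleaving sequence or to the top sequences, then scaling and log-transforming. The top set was 25 sequences, scaling was ×100 with log10, and ≥100 DNA reads were required.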

Series [2] covers variants of B1. Briefly: normalized RNA/DNA level with ligand (relative to sTRSVctl = 100) (log10 (% of sTRSVctl)); HEK293T overexpressing SLC46A1; ligand concentration (+) RNA-Seq: 6 mM; higher = less ribozyme self-cleavage, higher mRNA level. As to conditions: with (6R,S)-folinic acid; ligand present: yes. In short, it runs like this: as §1

± gives the standard deviation of the averaged measurements.

With CCCUGG, the “normalized RNA/DNA level without ligand (log10)” value in series [1] stood at 2.101 ± 0.017. For the same variant, the “normalized RNA/DNA level with ligand (log10)” value in series [2] was determined as 2.02 ± 0.022.
The like results for CCCUGU were, in that order, 2.1 ± 0.0073 and 2.102 ± 0.016.
The like results for CCCUGC were, in that order, 2.08 ± 0.025 and 2.08 ± 0.014.
The like results for ACCUCC were, in that order, 2.08 ± 0.0086 and 2.01 ± 0.028.
As for ACCUCU, the “normalized RNA/DNA level without ligand (log10)” value in series [1] amounted to 2.019 ± 0.0056. The “normalized RNA/DNA level with ligand (log10)” value in series [2] is 2.014 ± 0.015.
The like results for ACCUCG were, in that order, 2.028 ± 0.0069 and 2.074 ± 0.0045.
Taken in the same sequence, the figures for ACCUCA were 2.047 ± 0.0058 and 2.07 ± 0.049.
The like results for UCCUGA were, in that order, 2.025 ± 0.0055 and 2.045 ± 0.018.
For UCCUGC, the “normalized RNA/DNA level without ligand (log10)” value in series [1] is 2.057 ± 0.01. Moreover, in series [2], the “normalized RNA/DNA level with ligand (log10)” value amounted to 2.077 ± 0.014.
For UCCUGU, the “normalized RNA/DNA level without ligand (log10)” value in series [1] worked out at 1.999 ± 0.018. For the same variant, the “normalized RNA/DNA level with ligand (log10)” value in series [2] was 2.05 ± 0.043.
With UCCUGG, the “normalized RNA/DNA level without ligand (log10)” value in series [1] came to 1.91 ± 0.023. Further, in series [2], the “normalized RNA/DNA level with ligand (log10)” value was found to be 2.04 ± 0.023.
Taken in the same sequence, the figures for UCGCCC were 2.05 ± 0.039 and 2.04 ± 0.033.
The like results for UCGCCA were, in that order, 2.027 ± 0.0078 and 2.03 ± 0.023.
The like results for UCCUAU were, in that order, 1.9805 ± 0.00094 and 2.03 ± 0.034.
For UCCUAG, the “normalized RNA/DNA level without ligand (log10)” value in series [1] stood at 1.849 ± 0.004. In series [2], the “normalized RNA/DNA level with ligand (log10)” value was found to be 2.009 ± 0.0087.
The like results for ACCUUA were, in that order, 2.045 ± 0.009 and 2.041 ± 0.017.
Turning to ACCUUG, the “normalized RNA/DNA level without ligand (log10)” value in series [1] came to 1.953 ± 0.0055. The “normalized RNA/DNA level with ligand (log10)” value in series [2] was found to be 1.999 ± 0.011.
Taken in the same sequence, the figures for ACCUUC were 2.038 ± 0.014 and 2.04 ± 0.045.
The like results for ACCUUU were, in that order, 2.071 ± 0.0086 and 2.02 ± 0.021.
As for UCGAAA, the “normalized RNA/DNA level without ligand (log10)” value in series [1] was determined as 1.927 ± 0.0063. In series [2], the “normalized RNA/DNA level with ligand (log10)” value came out at 1.979 ± 0.0054.
Taken in the same sequence, the figures for UCGAAC were 2.027 ± 0.01 and 2.006 ± 0.0085.
Taken in the same sequence, the figures for GCGAUC were 2.039 ± 0.014 and 2.003 ± 0.015.
The like results for GCGAUA were, in that order, 1.999 ± 0.0087 and 2 ± 0.011.
Turning to GCGAUU, the “normalized RNA/DNA level without ligand (log10)” value in series [1] amounted to 2.032 ± 0.016. For the same variant, in series [2], the “normalized RNA/DNA level with ligand (log10)” value was found to be 2.04 ± 0.048.
The like results for CCCUCG were, in that order, 2.04 ± 0.025 and 1.997 ± 0.014.
The like results for CCCUCC were, in that order, 2.07 ± 0.015 and 2.006 ± 0.014.
The like results for CCCUCU were, in that order, 2.1 ± 0.026 and 2.09 ± 0.057.
With GCGAGG, the “normalized RNA/DNA level without ligand (log10)” value in series [1] turned out to be 1.98 ± 0.023. Moreover, in series [2], the “normalized RNA/DNA level with ligand (log10)” value was 2.05 ± 0.046.
For the variant GCGAGU, in series [1], the “normalized RNA/DNA level without ligand (log10)” value was 1.99 ± 0.04. In addition, the “normalized RNA/DNA level with ligand (log10)” value in series [2] was found to be 2.03 ± 0.051.

These data come from the supplement of paper PMC6757056.
